Laboratory results published in patent publication US9326950B2, “Self-assembling nanoparticles composed of transmembrane peptides and their application for specific intra-tumor delivery of anti-cancer drugs” (The United States of America, as represented by the …, priority 2006, dated 2016).
Where no end group is shown, it is not given here.

Columns and labels:
[1] = Fluorescence energy transfer between WMC77 and Alexa 546-labeled nanoparticles; type: physicochemical; settings: WMC77 final concentration 300 nM
[2] = Multi-angle light scattering, molecular weight of peptide aggregates and degree of aggregation; type: physicochemical; settings: for MW (g/mol): 0.1 M Tris-HCl pH 7.2
Description: To determine the influence of hydrophilic tail length on nanoparticle aggregation, the degree of aggregation was determined by multi-angle light scattering for TM peptides with the amino acid sequences of SEQ ID NO: 1; SEQ ID NO: 1-PEG11; SEQ ID NO: 1-PEG27; SEQ ID NO: 1-PEG38; and SEQ ID NO: 1-GGGGG.
The peptides were dissolved in DMSO and diluted with 0.1 M Tris-HCl buffer (pH 7.2) to provide 0.4 mg/ml peptide solutions. This was used for further dilutions. The final concentration of DMSO was either 2.5% or 1.25% (kept constant for all dilutions in the series). The samples were sonicated at maximum intensity for 10 minutes and left at room temperature overnight (about 20 hours before measurements). The following day, the samples were centrifuged at 13200 rpm for 30 minutes.
Light scattering (LS) studies were performed by a DAWN EOS multi-angle detector (Wyatt Technology Corp., Santa Barbara, Calif.) at a laser wavelength of 690 nm. The LS detector was connected with an Agilent 1100 HPLC system (Agilent Technologies, Palo Alto, Calif.). The MALS detector was calibrated with HPLC grade toluene, 99.8% (Aldrich Chemicals, Milwaukee, Wis.), which was filtered through a […] Anotop-25 inorganic membrane filter and then normalized with albumin (bovine) 98% monomer (Sigma Chemicals, St. Louis, Mo.). The data were collected and processed using Astra software (Wyatt Technology Corp.; version 4.90.04).
To determine the molecular weight of the peptide aggregates and the aggregation state, LS micro-batch measurements were performed. In brief, solvent was delivered through the HPLC system, bypassing the column compartment, at a flow rate of 0.05 ml/min. 900 μl samples with different peptide concentrations were injected through the HPLC autosampler. Four peptide concentrations were analyzed (i.e., 0.05 mg/ml, 0.1 mg/ml, 0.2 mg/ml, and 0.4 mg/ml). The concentrations were determined from weight measurements, since strong light scattering made traditional UV-absorbance determination inaccurate. The LS signal was collected for each concentration. Molecular weight was determined for each concentration separately using Astra software with a Debye plot and the Zimm equation. A single slice of collected signal giving the smallest error was chosen for molecular weight calculation at each concentration.

[3] = Transmission electron microscopy of peptide nanoparticles; type: physicochemical; settings: negative charges replaced by positive charges
Description: Peptides were solubilized in DMSO to yield 32 mg/ml solution. DMSO stocks were diluted with phosphate buffered saline (PBS) to produce 0.05-0.5 mg/ml solutions. Two μl of a sample were applied directly on microscopy grids, air-dried, stained with 0.5% (w/v) osmium tetroxide (OsO4), and visualized with a Hitachi H-7000 electron microscope.

[4] = WMC77 fluorescence emission with increasing amounts of nanoparticles; type: physicochemical; settings: increasing amounts of the nanoparticles
Description: FIG. 1 is a graph of fluorescence emission intensity (a.u.) versus concentration (mg/ml) of nanoparticles comprising SEQ ID NO: 1-PEG11 (represented by circles) or SEQ ID NO: 1-PEG38 (represented by open squares).
FIG. 2 is a graph of wavelength maximum (nm) versus concentration (μM) of nanoparticles comprising SEQ ID NO: 1-PEG11 (represented by circles) or SEQ ID NO: 1-PEG38 (represented by open squares).
Various amounts of nanoparticles (SEQ ID NO:1-PEG11 or SEQ ID NO 1-PEG38) were added to solutions of WMC77. The fluorescence emission intensity and shift in emission maxima were measured with the results depicted in FIGS. 1 and 2.

[5] = test system: MDA-MB-231 breast cancer cells; assay: Survival in mouse model of breast cancer lung metastasis; type: in vivo, nude mice
Description: FIG. 3 is a graph of percent survival (%) versus days on treatment for three groups of nude mice intravenously injected with one million MDA-MB-231 breast cancer cells. On the day following the intravenous injection with the breast cancer cells and continuing twice weekly, the mice were intraperitoneally injected with (1) PBS only (Control); (2) 3 mg/kg of nanoparticles of SEQ ID NO: 1-PEG27 dissolved in PBS (X4-4-6, 3 mg/kg); or (3) 12 mg/kg of nanoparticles of SEQ ID NO: 1-PEG27 dissolved in PBS (X4-4-6, 12 mg/kg).
One million MDA-MB-231 breast cancer cells were injected in nude mice intraveneously on Day 0. On Day 1 and continuing twice weekly, mice were intraperitoneally injected with (1) 3 mg/kg of nanoparticles of the TM peptide of SEQ ID NO: 1-PEG27 dissolved in PBS; (2) 12 mg/kg of nanoparticles of the TM peptide of SEQ ID NO: 1-PEG27 dissolved in PBS; or (3) a control (PBS only).

[6] = test system: MDA-231 breast cancer cells; settings: mouse, in vivo
Description: A CXCR4-TM domain 2-derived pegylated peptide labeled with Alexa546 fluorescent dye was prepared. […] Ten μl of peptide were diluted with 630 μl PBS (to produce 2 mg/ml peptide solution), sonicated for 10 minutes, and used for intratumoral injection.
Nude mice were inoculated in a breast pad with one million MDA-231 breast cancer cells. Six weeks later, when tumor sizes reached about 5 mm in diameter, 0.1 ml of 2 mg/ml solution of the fluorescent nanoparticles in PBS were injected into a breast pad near the tumor.
Whole animals and excised tumors were imaged utilizing the Maestro 420 In-Vivo Spectral Imaging System (Cambridge Resources and Instrumentation, Inc.).

[7] = aggregate MW at 0.05 mg/ml peptide
[8] = aggregate MW at 0.1 mg/ml peptide
[9] = aggregate MW at 0.2 mg/ml peptide
[10] = aggregate MW at 0.4 mg/ml peptide
[11] = 3 mg/kg intraperitoneally twice weekly
[12] = 12 mg/kg intraperitoneally twice weekly

Molecule	N, degree of aggregation (molecules per particle) ([2]; 0.05 mg/ml peptide)	N, degree of aggregation (molecules per particle) ([2]; 0.1 mg/ml peptide)	N, degree of aggregation (molecules per particle) ([2]; 0.2 mg/ml peptide)	MW (g/mol) [2, 7]	MW (g/mol) [2, 8]	MW (g/mol) [2, 9]	N, degree of aggregation (molecules per particle) ([2]; 0.4 mg/ml peptide)	MW (g/mol) [2, 10]	also measured
NCCCN1CCN(CCCNc2ccc3ncn4c5ccccc5c(=O)c2c34)CC1 [WMC77, 5-{3-[4-(aminopropyl)-piperazin-1-yl]-propylamino}-2,10b-diaza-aceanthrylen-6-one, reference compound]	–	–	–	–	–	–	–	–	Fluorescence Intensity (a.u.) of WMC77 solutions ([1]; No TM peptide): 622 a.u.
LLFVITLPFWAVDAVANWYFGNDD [SEQ ID NO: 1]	4090 molecules per particle	2478 molecules per particle	2494 molecules per particle	11,400,000 ± 40,000 g/mol	6,906,000 ± 22,000 g/mol	6,952,000 ± 22,000 g/mol	–	–	–
LLFVITLPFWAVDAVANWYFGNKK [SEQ ID NO: 6]	–	–	–	–	–	–	–	–	particle size and uniformity [3]: much large particles with highly variable diameters
SEQ ID NO: 1-GGGGG: TM peptide of SEQ ID NO: 1 with polyglycine tail GGGGG (LLFVITLPFWAVDAVANWYFGNDD; C-terminal GGGGG tail)	1614 molecules per particle	664 molecules per particle	282 molecules per particle	4,957,000 ± 8,000 g/mol	2,041,000 ± 4,000 g/mol	865,600 ± 2,700 g/mol	55 molecules per particle	169,700 ± 300 g/mol	–
SEQ ID NO: 1-PEG11: TM peptide of SEQ ID NO: 1 with hydrophilic oligomer PEG11 added (LLFVITLPFWAVDAVANWYFGNDD; not fully specified; also: PEG11 added)	743 molecules per particle	316 molecules per particle	137 molecules per particle	2,515,000 ± 69,000 g/mol	1,069,000 ± 20,000 g/mol	463,800 ± 6,800 g/mol	54 molecules per particle	183,200 ± 900 g/mol	emission maxima of WMC77 [4]: a shift in emission maxima; fluorescence emission intensity of WMC77 [4]: an increase in fluorescence emission intensity
SEQ ID NO: 1-PEG27: TM peptide of SEQ ID NO: 1 with hydrophilic oligomer PEG27 added; CXCR4 peptide nanoparticles (LLFVITLPFWAVDAVANWYFGNDD; not fully specified; also: PEG27 added)	286 molecules per particle	176 molecules per particle	167 molecules per particle	1,171,000 ± 190,000 g/mol	719,400 ± 100,700 g/mol	682,000 ± 105,000 g/mol	90 molecules per particle	367,100 ± 38,400 g/mol	survival by Day 75 [5, 11]: about 40%; survival by Day 91 [5, 11]: no surviving animals; body weight [5, 12]: continued to gain weight; survival by Day 75 [5, 12]: 100%; survival until the end of the experiment (Day 140) [5, 12]: a significant number of the animals administered 12 mg/kg of nanoparticles survived
SEQ ID NO: 1-PEG38: TM peptide of SEQ ID NO: 1 with PEG38, obtained by sequential coupling of PEG11 and PEG27 (LLFVITLPFWAVDAVANWYFGNDD; also: PEG38 added (PEG11 + PEG27))	–	93 molecules per particle	19 molecules per particle	–	436,100 ± 20,300 g/mol	90,950 ± 9,210 g/mol	24 molecules per particle	110,500 ± 5,600 g/mol	emission maxima of WMC77 [4]: a shift in emission maxima; fluorescence emission intensity of WMC77 [4]: an increase in fluorescence emission intensity
SEQ ID NO: 8-PEG27: deletion mutant lacking the five N-terminal amino acid residues of SEQ ID NO: 1, with PEG27 (TLPFWAVDAVANWYFGNDD; not fully specified; also: PEG27 added)	–	9 molecules per particle	10 molecules per particle	–	29,550 ± 4,630 g/mol	32,660 ± 6,730 g/mol	10 molecules per particle	34,520 ± 7,850 g/mol	–
TM peptide-Alexa conjugate: CXCR4-TM domain 2-derived pegylated peptide SEQ ID NO: 1-Peg11-Hcy-Peg27 labeled with Alexa546 fluorescent dye (LLFVITLPFWAVDAVANWYFGNDD; also: Peg11-Hcy-Peg27 attached, Alexa546 label)	–	–	–	–	–	–	–	–	Fluorescence Intensity (a.u.) of WMC77 solutions ([1]; with additive): 295 a.u.; penetration of tumor vasculature [6]: effectively penetrate tumor vasculature
